Percentage inhibition (%) (% inhibition and % inhibition of control enzyme activity data for two substances are collected here from US12427210B2, “Compounds comprising a fibroblast activation protein ligand and use thereof” (priority 2019, dated 2025).

Among the targets are PDE4D2 (h) (human) (UniProt Q08499); PDE3A (h) (human) (UniProt Q14432); COX1(h) (human) (UniProt P23219); Lck kinase (h) (human) (UniProt P06239).
The target of experiment [1] is T1, Renin (Homo sapiens (Human)) (UniProt P00797).
T1 sequence: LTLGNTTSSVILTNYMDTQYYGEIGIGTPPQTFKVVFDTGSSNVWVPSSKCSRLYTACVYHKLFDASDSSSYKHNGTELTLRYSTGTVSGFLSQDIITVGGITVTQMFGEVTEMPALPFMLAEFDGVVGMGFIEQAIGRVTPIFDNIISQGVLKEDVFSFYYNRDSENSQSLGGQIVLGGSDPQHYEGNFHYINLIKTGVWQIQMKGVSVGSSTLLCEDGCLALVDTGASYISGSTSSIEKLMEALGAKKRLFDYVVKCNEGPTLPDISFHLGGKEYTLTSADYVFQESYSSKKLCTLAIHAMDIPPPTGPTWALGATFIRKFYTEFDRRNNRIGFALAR

The target in experiment [2] is Matrix metalloprotease1 (Homo sapiens (Human)) (UniProt P03956).
In experiment [3] the target is serine protease NS3 (a.a. 3-181) from Hepatitis C virus genotype 1b (mutant R155Q) (Hepatitis C virus genotype 1b).
Experiment [4] concerns the target FAP (enzyme of the specificity protease screening) (Homo sapiens (Human)) (UniProt Q12884).
In experiment [5] the target is Ubiquitin carboxyl-terminal hydrolase 8 (Homo sapiens (Human)) (UniProt P40818).
In experiment [6] the target is Ubiquitin carboxyl-terminal hydrolase 7 (Homo sapiens (Human)) (UniProt Q93009).
Experiment [7] concerns the target T2, Caspase-3 (Homo sapiens (Human)) (UniProt P42574).
T2 sequence: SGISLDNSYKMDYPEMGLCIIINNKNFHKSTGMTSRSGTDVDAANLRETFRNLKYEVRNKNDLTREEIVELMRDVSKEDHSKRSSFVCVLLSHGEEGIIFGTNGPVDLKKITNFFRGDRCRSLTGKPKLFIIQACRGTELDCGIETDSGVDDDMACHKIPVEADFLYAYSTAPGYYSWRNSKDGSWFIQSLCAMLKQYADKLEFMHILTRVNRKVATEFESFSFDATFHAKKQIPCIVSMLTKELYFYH

The target of experiment [8] is T3, Caspase-7 (Homo sapiens (Human)) (UniProt P55210).
T3 sequence: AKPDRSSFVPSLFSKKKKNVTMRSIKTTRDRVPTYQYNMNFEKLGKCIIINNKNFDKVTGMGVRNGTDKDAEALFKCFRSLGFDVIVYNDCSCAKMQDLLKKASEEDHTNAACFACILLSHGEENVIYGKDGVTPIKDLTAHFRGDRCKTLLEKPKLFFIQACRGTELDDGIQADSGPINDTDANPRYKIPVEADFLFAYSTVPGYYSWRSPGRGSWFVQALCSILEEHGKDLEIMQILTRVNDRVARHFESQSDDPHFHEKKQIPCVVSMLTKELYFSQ

Experiment [9] concerns the target T4, A20 (Homo sapiens (Human)) (UniProt P21580).
T4 sequence: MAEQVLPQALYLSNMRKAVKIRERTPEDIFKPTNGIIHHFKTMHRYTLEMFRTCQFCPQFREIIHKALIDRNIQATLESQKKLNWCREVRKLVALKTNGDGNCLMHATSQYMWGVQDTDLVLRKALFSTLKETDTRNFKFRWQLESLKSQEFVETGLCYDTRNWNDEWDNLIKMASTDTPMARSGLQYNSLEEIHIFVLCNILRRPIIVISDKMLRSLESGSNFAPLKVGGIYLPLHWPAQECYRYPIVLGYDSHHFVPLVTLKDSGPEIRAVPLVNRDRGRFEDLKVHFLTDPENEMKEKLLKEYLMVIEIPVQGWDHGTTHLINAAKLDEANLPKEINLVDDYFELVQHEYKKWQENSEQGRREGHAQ

In experiment [10] the target is Beta secretase (Homo sapiens (Human)) (UniProt P56817).
The target in experiment [11] is serine protease NS3 (a.a. 3-181) from Hepatitis C virus genotype 2a (Hepatitis C virus genotype 2a).
Experiment [12] addresses Activated Protein C (Homo sapiens (Human)) (UniProt P04070).
For experiment [13], the target named is Cathepsin V (Homo sapiens (Human)) (UniProt O60911).
The target in experiment [14] is serine protease NS3 (a.a. 3-181) from Hepatitis C virus genotype 1b (mutant R155K) (Hepatitis C virus genotype 1b).
Experiment [15] concerns the target Caspase-8 (Homo sapiens (Human)) (UniProt Q14790).
The target of experiment [16] is DPP9 (Homo sapiens (Human)) (UniProt Q86TI2).
Experiment [17] has as its target Acetylcholinesterase (h) (human) (UniProt P22303).
The next experiment concerns the target T5, COX2(h) (human) (UniProt P35354).
T5 sequence: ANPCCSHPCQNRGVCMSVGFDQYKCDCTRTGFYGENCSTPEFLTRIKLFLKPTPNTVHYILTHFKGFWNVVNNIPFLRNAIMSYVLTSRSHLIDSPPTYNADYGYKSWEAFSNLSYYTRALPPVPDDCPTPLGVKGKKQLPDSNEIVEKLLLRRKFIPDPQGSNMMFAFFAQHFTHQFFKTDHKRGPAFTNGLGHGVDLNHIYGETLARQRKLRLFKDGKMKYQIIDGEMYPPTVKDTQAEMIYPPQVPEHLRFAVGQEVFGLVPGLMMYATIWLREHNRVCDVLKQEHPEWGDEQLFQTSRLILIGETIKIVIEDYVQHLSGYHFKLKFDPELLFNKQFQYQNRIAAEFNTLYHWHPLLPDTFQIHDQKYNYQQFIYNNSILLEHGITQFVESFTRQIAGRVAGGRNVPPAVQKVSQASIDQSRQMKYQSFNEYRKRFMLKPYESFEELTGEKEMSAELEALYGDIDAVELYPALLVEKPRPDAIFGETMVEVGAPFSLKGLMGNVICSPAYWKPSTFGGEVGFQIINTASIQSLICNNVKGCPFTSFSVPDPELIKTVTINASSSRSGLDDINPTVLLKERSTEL

Chain of COX1(h) (human) (P23219 24-599 limits assumed): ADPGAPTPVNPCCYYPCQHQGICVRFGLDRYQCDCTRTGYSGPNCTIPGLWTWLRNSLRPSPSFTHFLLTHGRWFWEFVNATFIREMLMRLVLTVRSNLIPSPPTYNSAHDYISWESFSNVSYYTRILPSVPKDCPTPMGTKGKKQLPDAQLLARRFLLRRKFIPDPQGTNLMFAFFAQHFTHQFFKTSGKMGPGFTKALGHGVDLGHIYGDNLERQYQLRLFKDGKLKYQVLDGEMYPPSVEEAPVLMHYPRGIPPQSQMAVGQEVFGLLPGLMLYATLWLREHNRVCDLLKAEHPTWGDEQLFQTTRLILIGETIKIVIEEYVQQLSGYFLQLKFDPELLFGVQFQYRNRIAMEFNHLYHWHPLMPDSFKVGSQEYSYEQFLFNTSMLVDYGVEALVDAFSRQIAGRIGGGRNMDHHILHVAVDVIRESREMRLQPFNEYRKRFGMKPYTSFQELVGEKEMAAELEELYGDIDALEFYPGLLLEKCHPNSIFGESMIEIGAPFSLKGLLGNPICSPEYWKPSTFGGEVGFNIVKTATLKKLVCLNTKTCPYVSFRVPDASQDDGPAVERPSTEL
Chain of FAP (enzyme of the specificity protease screening) (Homo sapiens (Human)) (Q12884 26-760 limits assumed): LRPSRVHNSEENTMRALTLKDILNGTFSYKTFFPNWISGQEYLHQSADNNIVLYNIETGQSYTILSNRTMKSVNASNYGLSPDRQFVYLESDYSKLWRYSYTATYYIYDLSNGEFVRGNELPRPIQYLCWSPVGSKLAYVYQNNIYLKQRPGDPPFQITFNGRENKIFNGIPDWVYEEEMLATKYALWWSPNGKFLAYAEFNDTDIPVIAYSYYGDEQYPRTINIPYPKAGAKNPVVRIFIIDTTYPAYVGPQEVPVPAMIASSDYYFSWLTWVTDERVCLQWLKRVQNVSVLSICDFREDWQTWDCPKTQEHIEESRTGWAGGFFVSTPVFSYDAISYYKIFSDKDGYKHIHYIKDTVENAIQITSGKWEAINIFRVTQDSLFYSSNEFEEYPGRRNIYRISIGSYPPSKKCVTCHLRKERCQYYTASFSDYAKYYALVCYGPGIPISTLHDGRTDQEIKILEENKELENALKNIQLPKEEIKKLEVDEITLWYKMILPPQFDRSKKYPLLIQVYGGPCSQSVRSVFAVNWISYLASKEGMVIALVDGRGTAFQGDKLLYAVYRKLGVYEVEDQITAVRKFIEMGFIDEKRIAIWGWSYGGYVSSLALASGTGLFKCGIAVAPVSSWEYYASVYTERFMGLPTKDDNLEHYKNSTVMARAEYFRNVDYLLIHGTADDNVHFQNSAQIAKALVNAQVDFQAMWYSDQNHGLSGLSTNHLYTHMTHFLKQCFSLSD
Chain of Caspase-8 (Homo sapiens (Human)) (Q14790 217-479 limits assumed): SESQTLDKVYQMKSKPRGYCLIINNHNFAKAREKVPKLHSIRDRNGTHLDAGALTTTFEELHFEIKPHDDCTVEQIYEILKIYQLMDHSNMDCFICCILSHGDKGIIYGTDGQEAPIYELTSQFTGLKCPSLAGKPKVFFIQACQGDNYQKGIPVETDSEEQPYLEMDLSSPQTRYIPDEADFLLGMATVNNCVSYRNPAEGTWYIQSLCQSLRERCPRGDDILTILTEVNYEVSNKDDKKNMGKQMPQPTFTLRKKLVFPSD
Chain of Acetylcholinesterase (h) (human) (P22303 32-614 limits assumed): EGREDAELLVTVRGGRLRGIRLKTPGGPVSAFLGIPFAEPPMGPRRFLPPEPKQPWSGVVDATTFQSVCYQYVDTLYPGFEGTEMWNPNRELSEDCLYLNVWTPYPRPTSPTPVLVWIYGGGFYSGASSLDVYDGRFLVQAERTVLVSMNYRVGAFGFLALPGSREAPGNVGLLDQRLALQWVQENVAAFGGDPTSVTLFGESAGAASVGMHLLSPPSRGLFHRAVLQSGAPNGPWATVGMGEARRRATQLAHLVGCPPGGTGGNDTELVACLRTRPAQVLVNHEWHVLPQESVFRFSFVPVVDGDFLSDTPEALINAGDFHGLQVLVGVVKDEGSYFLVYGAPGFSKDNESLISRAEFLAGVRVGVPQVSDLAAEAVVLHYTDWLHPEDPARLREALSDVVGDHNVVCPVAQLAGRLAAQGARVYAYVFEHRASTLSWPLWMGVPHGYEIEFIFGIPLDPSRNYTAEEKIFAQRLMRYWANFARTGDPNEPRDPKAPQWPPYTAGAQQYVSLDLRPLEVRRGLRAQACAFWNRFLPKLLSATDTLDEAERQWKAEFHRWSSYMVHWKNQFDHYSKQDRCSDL
Chain of PDE4D2 (h) (human) (Q08499 303-809): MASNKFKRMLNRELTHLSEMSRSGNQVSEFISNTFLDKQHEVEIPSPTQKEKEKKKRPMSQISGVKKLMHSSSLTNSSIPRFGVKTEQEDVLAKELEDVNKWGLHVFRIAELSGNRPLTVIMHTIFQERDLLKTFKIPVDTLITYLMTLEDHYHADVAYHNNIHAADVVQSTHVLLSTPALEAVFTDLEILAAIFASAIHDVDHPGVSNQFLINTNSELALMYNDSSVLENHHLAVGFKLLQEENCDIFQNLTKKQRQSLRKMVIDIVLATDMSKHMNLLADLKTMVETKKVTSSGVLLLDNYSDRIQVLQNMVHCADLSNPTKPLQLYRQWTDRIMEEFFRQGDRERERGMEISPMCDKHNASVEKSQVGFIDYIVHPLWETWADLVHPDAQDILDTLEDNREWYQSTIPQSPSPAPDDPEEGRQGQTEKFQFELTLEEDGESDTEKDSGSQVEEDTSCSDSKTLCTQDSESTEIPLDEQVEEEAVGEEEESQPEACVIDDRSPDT
Chain of Matrix metalloprotease1 (Homo sapiens (Human)) (P03956 100-469): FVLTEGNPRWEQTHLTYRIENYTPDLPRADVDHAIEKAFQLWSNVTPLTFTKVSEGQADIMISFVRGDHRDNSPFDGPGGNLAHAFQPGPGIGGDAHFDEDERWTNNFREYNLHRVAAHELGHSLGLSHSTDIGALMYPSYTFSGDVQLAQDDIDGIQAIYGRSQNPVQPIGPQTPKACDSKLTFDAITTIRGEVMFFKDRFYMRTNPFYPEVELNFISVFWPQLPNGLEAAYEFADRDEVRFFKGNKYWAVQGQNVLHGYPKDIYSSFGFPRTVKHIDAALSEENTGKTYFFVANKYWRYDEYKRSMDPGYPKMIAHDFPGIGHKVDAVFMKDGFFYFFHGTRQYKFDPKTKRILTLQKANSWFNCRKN

In the case of “Hex-[Cys(tMeBn(DOTA-AET))-Pro-Pro-Thr-Gln-Phe-Cys]-OH (3BP-3554) (peptide)”, the Percentage inhibition (%) (% inhibition at 10 µM) is -1 in experiment [1]; -7 in experiment [2]; -5 in experiment [3]; 1 in experiment [5]; 1 in [6]; -1 in experiment [7]. Besides, the Percentage inhibition (%) (% inhibition at 10 µM) in [8] was -7; in [9], 0; in experiment [10] it was 7; in [11], -40; in [12], 1; in experiment [13], -1. Further, the Percentage inhibition (%) (% inhibition at 10 µM) in experiment [14] was 0; in experiment [15] it was -3; in experiment [16], -5. This substance returned a Percentage inhibition (%) (% inhibition at 1 µM) in [4] of 97. In addition, the % inhibition of control enzyme activity with PDE4D2 (h) (human) is -4 % at 10 µM; with PDE3A (h) (human) it was -37 % at 10 µM; in the experiment with COX1(h) (human) it was 8 % at 10 µM; in [17], 1 % at 10 µM; in the experiment with COX2(h) (human) it was -22 % at 10 µM; with Lck kinase (h) (human), -4 % at 10 µM.

With “Hex-[Cys(tMeBn(DOTA-PP))-Pro-Pro-Thr-Gln-Phe-Cys]-Asp-NH2 (3BP-3407) (peptide)”, the Percentage inhibition (%) (% inhibition at 10 µM) in experiment [1] was 3; in experiment [2], 2; in [3] it was 2; in experiment [5], 6; in [6] it was 5; in [7], -2. The Percentage inhibition (%) (% inhibition at 10 µM) is -3 in experiment [8]; -4 in [9]; -5 in [10]; -2 in experiment [11]; 8 in [12]; -18 in experiment [13]. Further, the values for the Percentage inhibition (%) (% inhibition at 10 µM) in [14], in [15] and in experiment [16] were 5, 0 and 0, respectively. Besides, the Percentage inhibition (%) (% inhibition at 1 µM) in experiment [4] came out at 98. The % inhibition of control enzyme activity with PDE4D2 (h) (human) was -5 % at 10 µM; with PDE3A (h) (human), -3 % at 10 µM; in the experiment with COX1(h) (human), 10 % at 10 µM; in [17] it was -6 % at 10 µM; with COX2(h) (human) it was -14 % at 10 µM; with Lck kinase (h) (human) it was 10 % at 10 µM.
